Patent US12366572B2, “Activation of bioluminescence by structural complementation” (Promega Corporation, priority 2013, dated 2025)

Columns and labels:
[…] peptide [1] = target: T1, […] peptide (Oplophorus gracilirostris, UniProt Q9GV45); experiment: Non-luminescent polypeptide mutant luminescence after complementation with peptide (Example 5, Table 4); conditions: E. coli culture of polypeptide mutant + 1x peptide solution; NANOGLO reagent
[…] peptide [2] = target: T1, […] peptide; experiment: as above; conditions: E. coli culture of polypeptide mutant + 1x peptide solution; NANOGLO reagent; remark: listed apart in the source
NLpep78-HT or NLpep79-HT = experiment: Luminescence of NLpoly variants without NLpep or with NLpep78-HT / NLpep79-HT (Example 93); type: biochemical; conditions: E. coli expression culture
[3] = Luminescence of NLpoly without NLpep, E. coli clarified lysate (Example 57); type: biochemical; conditions: E. coli clarified lysate + NanoGlo+Fz
Description: 50 μL of each lysate and 50 uL NanoGlo+Fz were mixed and incubated for 5 min RT. Luminescence was measured on GloMax® Multi+ with 0.5 sec integration.

[4] = Substrate specificity of NLpoly 5P and 11S with NLpep79 (Example 97); type: biochemical
Description: E. coli clarified lysates were prepared for NLpoly 5P or 11S as described previously. The NLpoly lysates were then serially diluted in steps of 10-fold into PBS+0.1% Prionex.

[5] = tested on: wt Oplophorus 157-169 peptide; experiment: Relative specific activity in HEK293T lysates (Example 143); type: biochemical; conditions: averages of Vmax and Bmax normalized to NanoLuc
Description: Each clone was inserted into pFN21A HaloTag® CMV Flexi® Vector (Promega G2821), and lysates were prepared as follows: 3 ml HEK293T cells that have been diluted to a concentration of 200,000 cells/ml (600,000 cells total) were plated into each well of a 6-well plate and grown overnight at 37° C. in a CO2 incubator. The following day transfection complexes of each DNA were prepared by combining […] of DNA, Opti-MEM® (Life Technologies 11058-021) to a final volume of 310 μl and 20 μl of FuGENE® HD (Promega E231a). The transfection complexes were incubated for 20 minutes and then 150 μl of each complex added in duplicate to cells. The cells were grown overnight 37° C. in a CO2 incubator. The following day, the cells were washed cells with DPBS (Life Technologies 14190-144), and 1 ml fresh DPBS added. Cells were frozen to lyse and then thawed for testing. Duplicate transfection reactions lysates were combined.
In order to compare the specific activities of Nluc (full length enzyme) to wt Oplophorusl-156 and NLpoly11S in combination with wt Oplophorus 157-169 peptide (binary proteins), substrate titrations were run for all of the samples, but for the binary samples substrate titrations were run at multiple peptide concentrations. Using this format, it was possible to calculate a Vmax value for Nluc and both Vmax and Bmax values for NLpoly11S and wt Oplophorus 1-156. Three separate experiments were run using this format and Vmax and Bmax values were normalized to the Vmax of NanoLuc. Relative specific activities (calculated as averages of Vmax and Bmax) are normalized to NanoLuc.

Row | Molecule | Luminescence with […] ([…] peptide [1]) | Luminescence with […] ([…] peptide [2]) | Luminescence without NLpep or with NLpep78 or NLpep79 (NLpep78-HT or NLpep79-HT) | Luminescence in the absence of NLpep, higher than WT NLpoly [3] | Substrate specificity for furimazine [4] | Relative specific activity (*with wt 157-169 peptide) [5]
1 | L149M (protein) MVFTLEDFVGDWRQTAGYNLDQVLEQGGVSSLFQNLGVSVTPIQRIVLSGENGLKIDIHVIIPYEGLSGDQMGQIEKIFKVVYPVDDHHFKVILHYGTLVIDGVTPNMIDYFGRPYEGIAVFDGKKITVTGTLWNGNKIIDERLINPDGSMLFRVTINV | 2.89 RLU(mutant)/RLU(WT) | 2.16 RLU(mutant)/RLU(WT) |  |  |  | 
2 | 11S: evolved non-luminescent polypeptide variant 11S (12S-51) (protein) MVFTLEDFVGDWEQTAAYNLDQVLEQGGVSSLLQNLAVSVTPIQRIVRSGENALKIDIHVIIPYEGLSADQMAQIEEVFKVVYPVDDHHFKVILPYGTLVIDGVTPNMLNYFGRPYEGIAVFDGKKITVTGTLWNGNKIIDERLITPDGSMLFRVTINS |  |  | improved luminescence over the other variants | ~500 fold | superior specificity for furimazine than 5P | 0.18*
